Experiment [1] deals with HLA-A*30:01. Put plainly: IEDB peptide-MHC binding, purified MHC/competitive/fluorescence; filed as Kd, often an IC50 or EC50 that approximates it; ≥ and ≤ were set here for values at or beyond the usual limits of such assays.
Experiment [2] addresses HLA-A*01:01. The experiment is described as above.
Experiment [3] deals with HLA-B*15:01. Described as above.
Experiment [4] addresses HLA-A*26:01. Described as above.
Experiment [5] has as its target HLA-A*11:01. The experiment is described as above.
Experiment [6] deals with HLA-B*39:01. Described as above. As to conditions: source organism: Human immunodeficiency virus 1.
Experiment [7] concerns the target HLA-B*15:17. The experiment is described as above.
Experiment [8] addresses HLA-B*57:01. The experiment is described as above.
In experiment [9] the target is HLA-B*08:02. Described as above. To be noted: source organism: Human immunodeficiency virus 1.
Experiment [10] addresses HLA-A*31:01. The description is as above. As to conditions: source organism: Salmonella enterica subsp. enterica serovar Typhi.
Experiment [11] addresses HLA-B*38:01. The experiment is described as above. As to conditions: source organism: Salmonella enterica subsp. enterica serovar Typhi.
Experiment [12] addresses HLA-B*48:01. Described as above. As to conditions: source organism: Salmonella enterica subsp. enterica serovar Typhi.
The target of experiment [13] is HLA-B*27:05. The description is as above. As to conditions: source organism: Salmonella enterica subsp. enterica serovar Typhi.
Experiment [14] deals with HLA-A*03:01. Described as above. As to conditions: source organism: Salmonella enterica subsp. enterica serovar Typhi.
Experiment [15] concerns the target HLA-A*02:03. The experiment is described as above. To be noted: source organism: Salmonella enterica subsp. enterica serovar Typhi.
Experiment [16] concerns the target HLA-A*69:01. Described as above. As to conditions: source organism: Salmonella enterica subsp. enterica serovar Typhi.
For experiment [17], the target named is HLA-B*40:01. Described as above. To be noted: source organism: Salmonella enterica subsp. enterica serovar Typhi.
Experiment [18] addresses HLA-A*02:01. Described as above. As to conditions: source organism: Salmonella enterica subsp. enterica serovar Typhi.
The target of experiment [19] is HLA-B*15:09. Described as above. To be noted: source organism: Salmonella enterica subsp. enterica serovar Typhi.
Experiment [20] has as its target HLA-B*58:01. The experiment is described as above. To be noted: source organism: Salmonella enterica subsp. enterica serovar Typhi.
The target of experiment [21] is HLA-A*02:06. The experiment is described as above. As to conditions: source organism: Salmonella enterica subsp. enterica serovar Typhi.
The target in experiment [22] is HLA-B*08:01. Described as above. To be noted: source organism: Salmonella enterica subsp. enterica serovar Typhi.
Experiment [23] deals with HLA-B*08:03. Briefly: IEDB peptide-MHC binding, purified MHC/direct/fluorescence; filed as Kd, often an IC50 or EC50 that approximates it; ≥ and ≤ were set here for values at or beyond the usual limits of such assays. As to conditions: source organism: Bacillus cereus H3081.97.
Setting [24] is: source organism: Human immunodeficiency virus 1.
The mark [25] stands for this setting: source organism: Salmonella enterica subsp. enterica serovar Typhi.

In the Immune Epitope Database (IEDB) one finds Kd data, which are given here for three sequences.

pKd: −log10 of the molar value.

The pKd is the Kd on a negative log10 scale, so that one unit is a factor of ten. As to GTEEIRSLY, the negative-log Kd (pKd) was 4.89 in experiment [1] (setting [24]); 7.92 in experiment [2] (setting [24]); not above 4.70 in experiment [3] (setting [24]); 6.37 in [4] (setting [24]); not above 4.70 in experiment [5] (setting [24]); not above 4.70 in [6]. Besides, the values for the pKd in experiment [7] (setting [24]), in [8] (setting [24]) and in experiment [9] were 7.22, not above 4.70 and not above 4.70, respectively.

Take MSAIVSCRY: the pKd was not above 4.70 in [10]; not above 4.70 in experiment [11]; not above 4.70 in experiment [12]; 5.85 in experiment [1] (setting [25]); not above 4.70 in experiment [13]; 6.05 in experiment [14]. Moreover, the pKd in experiment [15] is not above 4.70; in experiment [2] (setting [25]), 8.40; in experiment [16], not above 4.70; in [17] it was not above 4.70; in experiment [3] (setting [25]), 7.29; in experiment [4] (setting [25]), 6.63. For the same sequence, the pKd in experiment [18] is not above 4.70; in experiment [5] (setting [25]), not above 4.70; in experiment [19], not above 4.70; in experiment [7] (setting [25]) it was 8.62; in experiment [20], 7.56; in experiment [8] (setting [25]) it was 6.63. For the same sequence, the pKd in [21] and in experiment [22] was not above 4.70 throughout.

Sequence FPKVRAQEL had a pKd in [23] of 6.68.
